Reference: paper PMC4779955

Molecular target: T1, Lin28A (GST-His6 fusion) (Homo sapiens, UniProt Q9H9Z2 1-209)
T1 sequence: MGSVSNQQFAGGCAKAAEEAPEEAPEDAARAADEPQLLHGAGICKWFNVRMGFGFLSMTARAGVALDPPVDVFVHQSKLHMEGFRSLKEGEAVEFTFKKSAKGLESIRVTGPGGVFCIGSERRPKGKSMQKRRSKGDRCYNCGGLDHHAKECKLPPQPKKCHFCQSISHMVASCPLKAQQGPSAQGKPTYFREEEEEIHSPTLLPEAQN
Test: EMSA

B1: Motif1 bubble duplex (dsDNA)
DNA 1: CTTCTGGCGCTGTCCATCACAAGGTGCTGAACCCAG
DNA 2: CTGGGTTCAGCACCATTTTTTGCGCCAGAAG
B1: binds.
